In article PMC8025675:

Molecular target: low-affinity anti-HER2 scFv (scFv Kd = 210 nM)
Test: BLI

- Kd: 0.21 µM
Substance: human epidermal growth factor receptor 2 (HER2) (from UniProt P04626 23-1255)
